The source of these data is patent publication US20260242478A1 (published 2026).

Experiment [1] addresses T1, Anti-CD28 Fab (SEQ ID NOs: 696, 697).
T1 construct: In the phage ELISA the Fab was biotinylated and captured on neutravidin coated plates
Kind of experiment: phage binding ELISA on captured Fab; CD28 antigen as competitor. A general note: ELISA stands for enzyme-linked immunosorbent assay.
T1 sequence (VH, as listed by the source, chain 1 of 2): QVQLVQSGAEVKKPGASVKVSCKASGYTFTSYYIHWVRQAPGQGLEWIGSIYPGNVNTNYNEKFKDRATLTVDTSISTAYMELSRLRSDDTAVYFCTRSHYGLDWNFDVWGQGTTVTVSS
T1 sequence (VL, as listed by the source, chain 2 of 2): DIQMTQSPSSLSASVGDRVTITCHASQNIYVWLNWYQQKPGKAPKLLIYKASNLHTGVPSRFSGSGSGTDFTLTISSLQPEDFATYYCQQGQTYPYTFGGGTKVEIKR
Description: (§1) Clonal phage were harvested as crude supematants and screened via standard ELISAs. […] Prior to the addition of clonal phage, wells were incubated with blocking buffer and CD28 antigen or blocking buffer alone. Without washing or aspirating, clonal phage supematants were then added to the wells and incubated for a short time. Wells were then washed followed by detection of bound phage using a horse radish conjugated anti-M13 antibody.

The target is the same in experiment [2]. Kind of experiment: phage binding ELISA; biotinylated Fab on neutravidin plate, anti-M13 HRP detection.
Target sequence in this assay (VH, as listed by the source, chain 1 of 2): as the sequence (VH, as listed by the source, chain 1 of 2) above
Target sequence in this assay (VL, as listed by the source, chain 2 of 2): as the sequence (VL, as listed by the source, chain 2 of 2) above
Description: as §1
The target of experiment [3] is T2, Anti-CD28 Fab (SEQ ID NOs: 696, 697).
T2 construct: In the phage ELISA the Fab was biotinylated and captured on neutravidin coated plates
Kind of experiment: phage binding ELISA; biotinylated anti-CD28 Fab on neutravidin plate, clonal phage supernatant, anti-M13 HRP detection.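 Further: wells pretreated with blocking buffer, either plus or minus CD28 antigen, then given crude phage supernatant briefly without washing in between, then washed before anti-M13 HRP readout.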
T2 sequence (VH, as listed by the source, chain 1 of 2): as the sequence (VH, as listed by the source, chain 1 of 2) above
T2 sequence (VL, as listed by the source, chain 2 of 2): as the sequence (VL, as listed by the source, chain 2 of 2) above
Description: as §1

Experiment [4] has the same target. Kind of experiment: phage binding ELISA on plate-captured anti-CD28 Fab pre-incubated with CD28 antigen (competitor: CD28), anti-M13 HRP detection.
Target sequence in this assay (VH, as listed by the source, chain 1 of 2): as the sequence (VH, as listed by the source, chain 1 of 2) above
Target sequence in this assay (VL, as listed by the source, chain 2 of 2): as the sequence (VL, as listed by the source, chain 2 of 2) above
Description: as §1
The target of experiment [5] is T3, Anti-CD28 Fab (SEQ ID NOs: 696, 697).
T3 construct: In the phage ELISA the Fab was biotinylated and captured on neutravidin coated plates
Kind of experiment: phage binding ELISA on captured Fab; wells pre-incubated with CD28 antigen as competitor.
T3 sequence (VH, as listed by the source, chain 1 of 2): as the sequence (VH, as listed by the source, chain 1 of 2) above
T3 sequence (VL, as listed by the source, chain 2 of 2): as the sequence (VL, as listed by the source, chain 2 of 2) above
Description: as §1

The target is the same in experiment [6]. As to the kind of experiment: phage binding ELISA; biotinylated Fab on neutravidin plate, clonal phage supernatant, anti-M13 HRP detection.
Target sequence in this assay (VH, as listed by the source, chain 1 of 2): as the sequence (VH, as listed by the source, chain 1 of 2) above
Target sequence in this assay (VL, as listed by the source, chain 2 of 2): as the sequence (VL, as listed by the source, chain 2 of 2) above
Description: Clonal phage were harvested as crude supematants and screened via standard ELISAs. […] Prior to the addition of clonal phage, wells were incubated with blocking buffer and CD28 antigen or blocking buffer alone. Without washing or aspirating, clonal phage supematants were then added to the wells and incubated for a short time. Wells were then washed followed by detection of bound phage using a horse radish conjugated anti-M13 antibody. Clonal phage of interest were then sent for sequence analysis.

With SCAAVFSFNWPECF (tested as crude phage supernatant) [Phage-1663], in experiment [1], the “Anti-CD28 Fab signal in the presence of CD28” value is 0.07. Further, in experiment [2], the “Anti-CD28 Fab (SEQ ID NOs: 696, 697) signal” value turned out to be 1.01.
Turning to TCAAGATYDWPSCL [Phage-1694], the “Phage binding ELISA, Anti-CD28 Fab signal” value in experiment [3] was 0.71. For the same molecule, the “Phage binding ELISA, Anti-CD28 Fab signal in the presence of CD28” value (“Phage binding ELISA … of CD28” below) in experiment [4] is 0.08.
On to MCAAGAMYNWPLCL (tested as crude phage supernatant) [Phage-1671], for which, in experiment [1], the “Anti-CD28 Fab signal in the presence of CD28” value was found to be 0.09. In addition, in experiment [2], the “Anti-CD28 Fab (SEQ ID NOs: 696, 697) signal” value stood at 0.95.
As to LCAAVFAYTWPMCF (tested as crude phage supernatant) [Phage-1667], the “Anti-CD28 Fab signal in the presence of CD28” value in experiment [1] is 0.07. In experiment [2], the “Anti-CD28 Fab (SEQ ID NOs: 696, 697) signal” value came out at 0.98.
As to PCAAGAHYVWPVCF (tested as crude phage supernatant) [Phage-1668], the “Anti-CD28 Fab signal in the presence of CD28” value in experiment [1] is 0.06. In addition, the “Anti-CD28 Fab (SEQ ID NOs: 696, 697) signal” value in experiment [2] was 0.97.
On to SCAAGASYSWPLCF (tested as crude phage supernatant) [Phage-1672], for which the “Anti-CD28 Fab signal in the presence of CD28” value in experiment [1] stood at 0.08. In experiment [2], the “Anti-CD28 Fab (SEQ ID NOs: 696, 697) signal” value turned out to be 0.95.
Consider TCSAGATYKWPTCL (tested as crude phage supernatant) [Phage-1669], for which, in experiment [1], the “Anti-CD28 Fab signal in the presence of CD28” value worked out at 0.07. In addition, the “Anti-CD28 Fab (SEQ ID NOs: 696, 697) signal” value in experiment [2] came out at 0.97.
Take VCAAGAAYPWPACL (tested as crude phage supernatant) [Phage-1673]: the “Anti-CD28 Fab signal in the presence of CD28” value in experiment [1] is 0.07. Moreover, in experiment [2], the “Anti-CD28 Fab (SEQ ID NOs: 696, 697) signal” value amounted to 0.93.
Turning to SCAAGAHWSWPACL (tested as crude phage supernatant) [Phage-1670], in experiment [1], the “Anti-CD28 Fab signal in the presence of CD28” value stood at 0.06. In addition, in experiment [2], the “Anti-CD28 Fab (SEQ ID NOs: 696, 697) signal” value was 0.97.
For the molecule TCAAGANYAWPVCL [Phage-1652], the “Anti-CD28 Fab signal in the presence of CD28” value in experiment [5] is 0.13. Also, the “Anti-CD28 Fab (SEQ ID NOs: 696, 697) signal” value in experiment [6] was determined as 1.09.
As to TCSAGAHYEWPKCL [Phage-1649], the “Anti-CD28 Fab signal in the presence of CD28” value in experiment [5] is 0.07. The “Anti-CD28 Fab (SEQ ID NOs: 696, 697) signal” value in experiment [6] came out at 1.12.
As to ECSAGAMWGWPACF [Phage-1693], the “Phage binding ELISA, Anti-CD28 Fab signal” value in experiment [3] came out at 0.73. In experiment [4], the “Phage binding ELISA … of CD28” value came to 0.09.
MCTAGFSFNWPECL (tested as crude phage supernatant) [Phage-1661]: the “Anti-CD28 Fab signal in the presence of CD28” value in experiment [1] came to 0.07. In addition, the “Anti-CD28 Fab (SEQ ID NOs: 696, 697) signal” value in experiment [2] was 1.05.
For WCSEVFSYPWPACL (tested as crude phage supernatant) [Phage-1665], in experiment [1], the “Anti-CD28 Fab signal in the presence of CD28” value is 0.06. Moreover, the “Anti-CD28 Fab (SEQ ID NOs: 696, 697) signal” value in experiment [2] was 0.99.
With TCSAGASYSWPYCM (tested as crude phage supernatant) [Phage-1664], in experiment [1], the “Anti-CD28 Fab signal in the presence of CD28” value was determined as 0.07. Also, in experiment [2], the “Anti-CD28 Fab (SEQ ID NOs: 696, 697) signal” value turned out to be 1.
Regarding PCAAGAQWSWPMCL [Phage-1656], in experiment [5], the “Anti-CD28 Fab signal in the presence of CD28” value is 0.09. Besides, in experiment [6], the “Anti-CD28 Fab (SEQ ID NOs: 696, 697) signal” value amounted to 1.07.
The corresponding values for SCTAGFRIHWPMCF [Phage-1659] are 0.12 and 1.06.
The corresponding values for TCAAGATWTWPTCM [Phage-1655] are 0.06 and 1.07.
In the same order, the values of TCSAGATYTWPVCF [Phage-1648] are 0.06 and 1.13.
Turning to TCAAGAVWQWPTCF [Phage-1695], in experiment [3], the “Phage binding ELISA, Anti-CD28 Fab signal” value turned out to be 0.71. Moreover, the “Phage binding ELISA … of CD28” value in experiment [4] amounted to 0.06.
With SCAAGSTWAWPACL [Phage-1657], the “Anti-CD28 Fab signal in the presence of CD28” value in experiment [5] is 0.07. The “Anti-CD28 Fab (SEQ ID NOs: 696, 697) signal” value in experiment [6] was found to be 1.07.
In the same order, the values of TCAAGAHYEWPQCF [Phage-1653] are 0.06 and 1.08.
SCAAGAAYAWPWCL [Phage-1660]: in experiment [5], the “Anti-CD28 Fab signal in the presence of CD28” value came to 0.07. In addition, the “Anti-CD28 Fab (SEQ ID NOs: 696, 697) signal” value in experiment [6] was 1.05.
With TCSAGATYKWPMCF [Phage-1690], the “Phage binding ELISA, Anti-CD28 Fab signal” value in experiment [3] came to 0.77. The “Phage binding ELISA … of CD28” value in experiment [4] amounted to 0.07.
With TCSAGATYGWPACF [Phage-1691], the “Phage binding ELISA, Anti-CD28 Fab signal” value in experiment [3] amounted to 0.76. The “Phage binding ELISA … of CD28” value in experiment [4] came to 0.07.
With TCSAGAHYPWPMCL (tested as crude phage supernatant) [Phage-1674], in experiment [1], the “Anti-CD28 Fab signal in the presence of CD28” value is 0.06. Also, the “Anti-CD28 Fab (SEQ ID NOs: 696, 697) signal” value in experiment [2] came out at 0.93.
As to TCAAGATYSWPSCF [Phage-1651], the “Anti-CD28 Fab signal in the presence of CD28” value in experiment [5] worked out at 0.07. Further, the “Anti-CD28 Fab (SEQ ID NOs: 696, 697) signal” value in experiment [6] was found to be 1.1.
On to LCDQFFHYNWPACL (tested as crude phage supernatant) [Phage-1662], for which the “Anti-CD28 Fab signal in the presence of CD28” value in experiment [1] is 0.05. In addition, in experiment [2], the “Anti-CD28 Fab (SEQ ID NOs: 696, 697) signal” value came to 1.04.
In the same order, the values of SCTAVFSYALSPCF (tested as crude phage supernatant) [Phage-1666] are 0.05 and 0.99.
Consider ICAAGAGWPWPWCL [Phage-1692], for which the “Phage binding ELISA, Anti-CD28 Fab signal” value in experiment [3] is 0.75. The “Phage binding ELISA … of CD28” value in experiment [4] amounted to 0.1.
For the molecule SCAAGFHYEWPQCF [Phage-1658], in experiment [5], the “Anti-CD28 Fab signal in the presence of CD28” value was found to be 0.06. Moreover, the “Anti-CD28 Fab (SEQ ID NOs: 696, 697) signal” value in experiment [6] came to 1.06.
For the molecule TCSAGATYSWPLCF [Phage-1650], in experiment [5], the “Anti-CD28 Fab signal in the presence of CD28” value came to 0.09. The “Anti-CD28 Fab (SEQ ID NOs: 696, 697) signal” value in experiment [6] was 1.12.
In the case of TCAAGATYNWPWCF [Phage-1654], in experiment [5], the “Anti-CD28 Fab signal in the presence of CD28” value was 0.07. Besides, the “Anti-CD28 Fab (SEQ ID NOs: 696, 697) signal” value in experiment [6] was 1.07.
